Laboratory results: the DeepSol protein solubility set

experiment: soluble on expression in E. coli; label from the status in PepcDB or PDB records

| Sequence | soluble on expression in E. coli |
| --- | --- |
| MEQQFILRLHESIKHVVDLGNSTIDICDDRSVVLTHNNKKYPGIVVRLPCIVESQKTMDSRQHYKVADISTLVVVYPDDSFDFDKEREMYELSGLSPPLKYVKARRFRKKSSKIEYVEEIEKKVNDLLEKDMKARSVEVVAKEEKETSDDLDVLAAEIENKLVDNAEAHKEEVQSRPDEIGEKKEEQPRNEEIERLEKGIEEKRRQMESALNPILQKRFESQLNVLLKELEDVKKGMEME | soluble |
| MTDLTGILYIVATPIGNLQDITQRALETFAQVDLIAAEDTRHSGLLLSHYGIKKPFFALHDHNEQEKAHILVEKLKQGSNIALISDAGTPLISDPGFHLVRQCREAGIRVVPLPGACAAITALCASGIASDRFCFEGFLPAKSKARKDKLENIAEEDRTLIFYESTHRILDTLEDMQAVLGEERYIVLAREMTKTWETITGNTIKNLREWLLEDPNRTKGEMVLIVEGKPKSDNNDEISPQAVKALELIAEELPLKKAAAIVAELYGYKKNALYQFGLAHLEK | not soluble |
| MSLKRVVIIGMGFGGIRAARVLAGKGLDVVLVDRNNYHLFQPLLYQVGTAGLEQESIAYPVRAMAREWRGTRFHLAEVAGVDFPAREVVTGNGRIPYDYLIIGAGSVTNYFGLESVERHAFDLKELVDGERLRNHILTAFERAVVEPDPAKRRALMTFVIVGGGPTGVEFAGALMELVRYVLAKDYPELSVQAARVVLVEAFDRLLAAMPQELQVYTLEKLRAMGVEVLFNARVEGHHHHHH | not soluble |
| MVDNKVTQSNKLIESSHTLTLNEKRLVLCAASLIDSRKPLPKDGYLTIRADTFAEVFGIDVKHAYAALDDAATKLFNRDIRRYVKGKVVERMRWVFHVKYREGQGCVELGFSPTIIPHLTMLHKEFTSYQLK | soluble |
| SYMYDRDGSLVSEIVSDHENRVLVPFNKIPEEVKQIFLTSEDRHFYEHKGFDFMGMVPPTASNVKDKKIDQGASTITQQLSRNLYLSHERSFSRKLTELAYSYQLEKKYTKNEILEAYLNTIYFNNGVYGVGSAAQFYFSKPLKSLTVGEMAFICAIPNNPTLYDPLKHF | not soluble |
| DLRFFGDFVLEGDARLGEVAALYGLKLDGIDPGMPLSQFIVQKNRGEPVVGDQIEWNGTIWTVAVMDGNKIQKVGVKFPEGTRPGPGLFL | not soluble |
| MGHHHHHHGGHMSLGALILSDRDIRALLAIGDLVVEPLSGDTVRENGLDLRLGRGFCRFKRSDRVLDPRAPGSPGEFYECGEGDEIIVGPGEHMLLHTQEYIRLPGYVAGLVNLRSTWARTGIYIPATVVDAGFEGQLTIEVVGSGFPVKLYPGDRFLHLVLVKLQSPAMNPYRGRYQGQRGVRLPKLFAKNTGEGGS | soluble |
| MGRLDGKVIILTAAAQGIGQAAALAFAREGAKVIATDINESKLQELEKYPGIQTRVLDVTKKKQIDQFASEVERLDVLFNVAGFVHHGTVLDCEEKDWDFSMNLNVRSMYLMIKAFLPKMLAQKSGNIINMSSVASSVKGVVNRCVYSTTKAAVIGLTKSVAADFIQQGIRCNCVCPGTVDTPSLQERIQARGNPEEARNDFLKRQKTGRFATAEEIAMLCVYLASDESAYVTGNPVIIDGGWSL | not soluble |
| MGSDKIHHHHHHMTVSNPAKSIRIGTMISGNNGDAATRIREIAGLGFESFEPFFWQTTKGQNLAELGKRCVDAIGDRDITISTLGMFGNPLEETDIDLETLEGWKQCIDNAHHFGASCVAGFTGRLRGKVLTDSLPRYREIWSELAKRAADKGIRIAFENCAMDGNWQSGDWNIAHNPDAWELMFNETPDDNIGLEWEPCHQMVYLIDPLPQIRKWASKIFHVHGKDATIRWDVIREHGIFGKEPFVFMRTPGFGDSNWTNVISELRLAGYSGSIDIEGWHDPVYRDALEMTGQVHALNHLKQARGGDFIDEMAAYGGGDPSLK | not soluble |
| MKKAIQFGAGNIGRGFIGGLLVKSGYHVVFADVNEYILNSINKDKKYTIHIRDVECIDEVIDNISAVSSIKEEIIDEIVQAEIITTAVGPLVLTKIASTIAKGIKARKEKGLTSNLNIIACENAIYASSSLKEEVLKYLNKEEVEYLEMYVGFPNCSVDRIVPPGKNENPLDVTVENFYEWNVEKQGFKGEIPTIVGMNLADNLMAYIERKLFTLNTGHAITAYIGYLKGYKTIEESIKDKFICDIVKSAMVESGEGLIKKYNFDSEVHYKYIDKILNRFKNPYLNDDVLRVGREPLRKLSDKDRLIKPLMTAKSYGLSVDNLILGIGAALHYNNSEDTQSVELQELIKSIGVKKAVAKIANISNDEELLNNIEKSYIFMKNL | not soluble |
| SSGLSESKQTHVHLRNVDAATLQIIITYAYTGNLAMNDSTVEQLYETACFLQVEDVLQRCREYLIKKINAENCVRLLSFADLFSCEELKQSAKRMVEHKFTAVYHQDAFMQLSHDLLIDILSSDNLNVEKEETVREAAMLWLEYNTESRSQYLSSVLSQIRIDALSEVTQRAWFQGLPPNDKSVVVQGLYKSMPKFFKPRLGMTKEEMMIFIEASSENPCSLYSSVCYSPQAEKVYKLCSPPADLHKVGTRCNS | soluble |
| MDFWPEFMATSWGREFVAGGFGGVAGIISGYPLDTLRIRQQQSSKSGSAFSILRRMLAIEGPSSLYRGMAAPLASVTFQNAMVFQIYAIFSRSFDSSVPLVEPPSYRGVALGGVATGAVQSLLLTPVELIKIRLQLQQTKSGPITLAKSILRRQGLQGLYRGLTITVLRDAPAHGLYFWTYEYVRERLHPGCRKTGQENLRTMLVAGGLAGVASWVACYPLDVVKTRLQQGHGAYEGIADCFRKSVKQEGYTVLWRGLGTAVARAFVVNGAIFAAYEVALRCLFNQSPSPDIVTGD | soluble |
| MTAELLVNVTPSETRVAYIDGGILQEIHIEREARRGIVGNIYKGRVSRVLPGMQAAFVDIGLDKAAFLHASDIMPHTECVAGEEQKQFTVRDISELVRQGQDLMVQVVKDPLGTKGARLTTDITLPSRYLVFMPGASHVGVSQRIESESERERLKKVVAEYCDEQGGFIIRTAAEGVGEAELASDAAYLKRVWTKVMERKKRPQTRYQLYGELALAQRVLRDFADAELDRIRVDSRLTYEALLEFTSEYIPEMTSKLEHYTGRQPIFDLFDVENEIQRALERKVELKSGGYLIIDQTEAMTTVDINTGAFVGHRNLDDTIFNTNIEATQAIARQLRLRNLGGIIIIDFIDMNNEDHRRRVLHSLEQALSKDRVKTSVNGFSALGLVEMTRKRTRESIEHVLCNECPTCHGRGTVKTVETVCYEIMREIVRVHHAYDSDRFLVYASPAVAEALKGEESHSLAEVEIFVGKQVKVQIEPLYNQEQFDVVMM | soluble |
| MKSACSIITASIVLYKSKPDIIRDVITSFFSDTVTKKKLILIDNSPTDSLRVLQEERPEDIQYFFNNRNIGFGSAHNIGIREAARFNPSYHLILNPDVQFGPEVVPTLASYMDENPDIGLLMPQVYYPNGELQHLCKLFPRPWDVMLRRFVPYRSYRERNNERFELRNWSYDTIQDIPSLSGCFMFARMDILREVGGFDERFFMYAEDLDLCRRIGQVSRTVFFPKVSIMHTYAKGSYHLEHHHHHH | soluble |
| MGSDKIHHHHHHSRSTKGVRELSLFNRHTGEYNNGSYWVDGHYQSEVLADFSHLLRDHRQNVAAPMDKRLFDLLYTLKSTLNTDKEIHVISGYRSPKTNAMLAGKSGGVAKKSYHMQGMAMDIAIPGVNLKTIRDAALSLKLGGVGYYPKSGFVHVDCGPVRHW | not soluble |
| MSLGNSYAGQLKTTRFEEVLHNSIEASLRSNNLVPRPIFSQLYLEAEQQLAALEGGSRVDNEEEEEEGEGGLETNGPPNPFQLHPLPEGCCTTDGFCQAGKDLRLVSISNEPMDVPAGFLLVGVKSPSLPDHLLVCAVDKRFLPDDNGHNALLGFSGNCVGCGKKGFCYFTEFSNHINLKLTTQPKKQKHLKYYLVRNAQGTLTKGPLICWKGSEFRSRQIPASTCSSSLFPALESTAAFPSEPVPGTNPSILMGAQQAGPASDHPSLNAAMGPAVFNGKDSPKCQQLAKNNLLALPRPSALGILSNSGPPKKRHKGWSPESPSAPDGGCPQGGGNRAKYESAGMSCVPQVGLVGPASVTFPVVASGEPVSVPDNLLKICKAKPVIFKVFVNGATQMVALGPAEEGHHHHHH | not soluble |
| PPAVSDIRVTRSSPSSLSLAWAVPRAPSGAVLDYEVKYHEKGAEGPSSVRFLKTSENRAELRGLKRGASYLVQVRARSEAGYGPFGQEHHSQTQLD | soluble |
| SKKVIGKKRAHAEDDELDPMDPSSYSDAPRGGWVVGLKGVQPRAADTTASTGIFFKFQITDLTKPDEKIEVLTKRDQIVFQGPLFQQRPYPSPGAVLRRNAEVASSQKKKPNSQFTEITKRGDGSDGLGDAD | soluble |
| MKIIFLLFGFIFHPNNAQFDKSGVQQTLDAHNEFRSSIAKGTYVTKGLLHAPATNIMKMKWNVTIATAAQNHANKCPKGHDGPLEGVSGECMWSGHINASKGVNHLGAVAAKAWSSEYTKKGWETDVMSDEFFNSGVGHAIIMTWYSQVNVGCGVKLCQKEGDYQLAIVVCKYWGEGQGNGKIMYESGPTCSACPPNTTCDQATGLCDSKIPDIPEPIYKYDELVNSKPAYTVVMGFFLMIIVQLI | not soluble |
| MPHNPIRVVVGPANYFSHPGSFNHLHDFFTDEQLSRAVWIYGKRAIAAAQTKLPPAFGLPGAKHILFRGHCSESDVQQLAAESGDDRSVVIGVGGGALLDTAKALARRLGLPFVAVPTIAATCAAWTPLSVWYNDAGQALHYEIFDDANFMVLVEPEIILNAPQQYLLAGIGDTLAKWYEAVVLAPQPETLPLTVRLGINNAQAIRDVLLNSSEQALSDQQNQQLTQSFCDVVDAIIAGGGMVGGLGDRFTRVAAAHAVHNGLTVLPQTEKFLHGTKVAYGILVQSALLGQDDVLAQLTGAYQRFHLPTTLAELEVDINNQAEIDKVIAHTLRPVESIHYLPVTLTPDTLRAAFKKVESFKA | soluble |
| MGSDKIHHHHHHMDIRHLRYFVSIVDNDFNLSRASLNLYVSQPALSMMISDFENKEGVQLFKRAQGKIVGLTYVGENYYRDAKEVIKKYNEMHSNLHKSIEQIKGHISIGIPPLILSVVFSEVMPKLILNNPEINFTIKELGAYLLKSDLLLENIDFAVLLNPERISKNIIESYEIHRSELSLFLSPKHHLSAKENITWRDLHGEKIVIFDQTFMIHHQLVESFERHNVYPNIVLKSSSWDFLLYSVKINESLLTILPLPMYEQYKSTEFICRRMEEAIPWSVTLCRLKKNCYTNVEEYIFDSLLKAFKP | not soluble |
| MNLGDLTNFVEKPLAAVSNIVNTPNSAGRYRPFYLRNLLDAVQGRNLNDAVKGKVVLITGGSSGIGAAAAKKIAEAGGTVVLVARTLENLENVANDIRAIRGNGGTAHVYPCDLSDMDAIAVMADQVLGDLGGVDILINNAGRSIRRSLELSYDRIHDYQRTMQLNYLGAVQLILKFIPGMRERHFGHIVNVSSVGVQTRAPRFGAYIASKAALDSLCDALQAETVHDNVRFTTVHMALVRTPMISPTTIYDKFPTLTPDQAAGVITDAIVHRPRRASSPFGQFAAVADAVNPAVMDRVRNRAFNMFGDSSAAKGSESQTDTSELDKRSETFVRATRGIHW | soluble |
| KRLILLDYDGTLVPFQKRPEDASPTPQLLDTLQKLTADPLNHVVINSGRDHFTLEKWLGALPISFAAEHGAFYKENGVWHKNVHAQEWSPGLLSILKLFVSKTPRSHLEVKETALAWHYRETDAWLGRLRAQQLVNSLISICLKQNLQIMQGNKVIEIKSPEFTKGSEVNRLLLATRYDFILAMGDDTTDDDMFKALPVTAVTVKIGTASESARYNLPVQTDTLPFLQRLTDKSVVKAALKSGLKGQLSSAIDFLKRIINH | not soluble |
